{"source": "IntAct's records for PubMed 9874765", "target": "cir1_human CIR1 (UniProt Q86X95)", "sequence (Q86X95 whole entry)": "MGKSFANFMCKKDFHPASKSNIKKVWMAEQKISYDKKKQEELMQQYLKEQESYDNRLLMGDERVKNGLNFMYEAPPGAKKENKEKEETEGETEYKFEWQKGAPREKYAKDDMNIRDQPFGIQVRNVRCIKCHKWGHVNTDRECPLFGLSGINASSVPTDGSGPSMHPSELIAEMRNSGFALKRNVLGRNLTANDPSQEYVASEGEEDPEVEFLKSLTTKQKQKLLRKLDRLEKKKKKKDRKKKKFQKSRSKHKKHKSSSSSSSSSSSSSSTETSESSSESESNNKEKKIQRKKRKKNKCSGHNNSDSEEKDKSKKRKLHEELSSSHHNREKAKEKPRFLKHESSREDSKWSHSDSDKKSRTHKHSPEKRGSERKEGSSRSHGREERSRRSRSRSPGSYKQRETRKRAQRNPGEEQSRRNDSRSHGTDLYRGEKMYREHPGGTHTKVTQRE", "data": [{"substance": "Recombining binding protein suppressor of hairless (Homo sapiens), Q06330 E233A;E234A;F235A", "values": [{"measurement": "effect of a mutation on the interaction", "result": "disrupting interaction strength"}]}, {"substance": "Recombining binding protein suppressor of hairless (Homo sapiens), Q06330 K249A;L250A;V251A", "values": [{"measurement": "effect of a mutation on the interaction", "result": "disrupting interaction strength"}]}]}
